The text below walks through data of the Human Domainome abundance scans (Beltran et al. 2025).

± gives the uncertainty stated by the source.

B1: Tumor protein p73, residues 487 to 549; numbered along this chain, O15350 (parent)
chain: YHADPSLVSFLTGLGCPNCIEYFTSQGLQSIYHLQNLTIEDLGALKIPEQYRMTIWRGLQDLK

Variants of B1 are the subject of the data set. In words: abundance fitness (aPCA) (normalised: wild type 0, dead -1); higher = more abundant; growth selection in yeast, the domain comes from the species named. Particulars: Homo sapiens.
Turning to YEADPSLVSFLTGLGCPNCIEYFTSQGLQSIYHLQNLTIEDLGALKIPEQYRMTIWRGLQDLK [H2E], the abundance fitness was 0.066 ± 0.046.

On to YCADPSLVSFLTGLGCPNCIEYFTSQGLQSIYHLQNLTIEDLGALKIPEQYRMTIWRGLQDLK [H2C], for which the abundance fitness turned out to be 0.197 ± 0.096.

Consider YWADPSLVSFLTGLGCPNCIEYFTSQGLQSIYHLQNLTIEDLGALKIPEQYRMTIWRGLQDLK [H2W], for which the abundance fitness stood at 0.119 ± 0.063.

Turning to YTADPSLVSFLTGLGCPNCIEYFTSQGLQSIYHLQNLTIEDLGALKIPEQYRMTIWRGLQDLK [H2T], the abundance fitness was found to be 0.273 ± 0.053.

Consider YVADPSLVSFLTGLGCPNCIEYFTSQGLQSIYHLQNLTIEDLGALKIPEQYRMTIWRGLQDLK [H2V], for which the abundance fitness was -0.004 ± 0.043.

For YQADPSLVSFLTGLGCPNCIEYFTSQGLQSIYHLQNLTIEDLGALKIPEQYRMTIWRGLQDLK [H2Q], the abundance fitness came out at 0.345 ± 0.058.

Take YGADPSLVSFLTGLGCPNCIEYFTSQGLQSIYHLQNLTIEDLGALKIPEQYRMTIWRGLQDLK [H2G]: the abundance fitness is -0.096 ± 0.045.

Regarding YIADPSLVSFLTGLGCPNCIEYFTSQGLQSIYHLQNLTIEDLGALKIPEQYRMTIWRGLQDLK [H2I], the abundance fitness worked out at 0.515 ± 0.097.

As to YLADPSLVSFLTGLGCPNCIEYFTSQGLQSIYHLQNLTIEDLGALKIPEQYRMTIWRGLQDLK [H2L], the abundance fitness came out at 0.202 ± 0.044.

As for YFADPSLVSFLTGLGCPNCIEYFTSQGLQSIYHLQNLTIEDLGALKIPEQYRMTIWRGLQDLK [H2F], the abundance fitness came to 0.145 ± 0.11.

On to YNADPSLVSFLTGLGCPNCIEYFTSQGLQSIYHLQNLTIEDLGALKIPEQYRMTIWRGLQDLK [H2N], for which the abundance fitness was determined as 0.216 ± 0.07.

Turning to YHADPMLVSFLTGLGCPNCIEYFTSQGLQSIYHLQNLTIEDLGALKIPEQYRMTIWRGLQDLK [S6M], the abundance fitness is -0.031 ± 0.06.

Turning to YHADPHLVSFLTGLGCPNCIEYFTSQGLQSIYHLQNLTIEDLGALKIPEQYRMTIWRGLQDLK [S6H], the abundance fitness is -0.077 ± 0.089.

YHADPQLVSFLTGLGCPNCIEYFTSQGLQSIYHLQNLTIEDLGALKIPEQYRMTIWRGLQDLK [S6Q]: the abundance fitness worked out at 0.064 ± 0.066.

YHADPFLVSFLTGLGCPNCIEYFTSQGLQSIYHLQNLTIEDLGALKIPEQYRMTIWRGLQDLK [S6F]: the abundance fitness is -0.095 ± 0.072.

For the variant YHADPCLVSFLTGLGCPNCIEYFTSQGLQSIYHLQNLTIEDLGALKIPEQYRMTIWRGLQDLK [S6C], the abundance fitness is 0.036 ± 0.067.

Regarding YHADPDLVSFLTGLGCPNCIEYFTSQGLQSIYHLQNLTIEDLGALKIPEQYRMTIWRGLQDLK [S6D], the abundance fitness turned out to be 0.017 ± 0.14.

For YHADPNLVSFLTGLGCPNCIEYFTSQGLQSIYHLQNLTIEDLGALKIPEQYRMTIWRGLQDLK [S6N], the abundance fitness was -0.076 ± 0.21.

As to YHADPELVSFLTGLGCPNCIEYFTSQGLQSIYHLQNLTIEDLGALKIPEQYRMTIWRGLQDLK [S6E], the abundance fitness turned out to be 0.126 ± 0.048.

As for YHADPALVSFLTGLGCPNCIEYFTSQGLQSIYHLQNLTIEDLGALKIPEQYRMTIWRGLQDLK [S6A], the abundance fitness amounted to 0.041 ± 0.052.

Consider YHADPKLVSFLTGLGCPNCIEYFTSQGLQSIYHLQNLTIEDLGALKIPEQYRMTIWRGLQDLK [S6K], for which the abundance fitness was -0.07 ± 0.066.

Turning to YHADPGLVSFLTGLGCPNCIEYFTSQGLQSIYHLQNLTIEDLGALKIPEQYRMTIWRGLQDLK [S6G], the abundance fitness was 0.136 ± 0.027.

YHADPLLVSFLTGLGCPNCIEYFTSQGLQSIYHLQNLTIEDLGALKIPEQYRMTIWRGLQDLK [S6L]: the abundance fitness is -0.15 ± 0.056.

Regarding YHANPSLVSFLTGLGCPNCIEYFTSQGLQSIYHLQNLTIEDLGALKIPEQYRMTIWRGLQDLK [D4N], the abundance fitness was -0.15 ± 0.092.

YHAWPSLVSFLTGLGCPNCIEYFTSQGLQSIYHLQNLTIEDLGALKIPEQYRMTIWRGLQDLK [D4W]: the abundance fitness came to 0.181 ± 0.18.

As to YHQDPSLVSFLTGLGCPNCIEYFTSQGLQSIYHLQNLTIEDLGALKIPEQYRMTIWRGLQDLK [A3Q], the abundance fitness was determined as 0.311 ± 0.045.

Regarding YHHDPSLVSFLTGLGCPNCIEYFTSQGLQSIYHLQNLTIEDLGALKIPEQYRMTIWRGLQDLK [A3H], the abundance fitness came out at 0.101 ± 0.094.

On to YHPDPSLVSFLTGLGCPNCIEYFTSQGLQSIYHLQNLTIEDLGALKIPEQYRMTIWRGLQDLK [A3P], for which the abundance fitness came to 0.361 ± 0.099.

For the variant YHIDPSLVSFLTGLGCPNCIEYFTSQGLQSIYHLQNLTIEDLGALKIPEQYRMTIWRGLQDLK [A3I], the abundance fitness worked out at 0.405 ± 0.089.

Regarding YHGDPSLVSFLTGLGCPNCIEYFTSQGLQSIYHLQNLTIEDLGALKIPEQYRMTIWRGLQDLK [A3G], the abundance fitness was found to be 0.141 ± 0.038.

In the case of YHWDPSLVSFLTGLGCPNCIEYFTSQGLQSIYHLQNLTIEDLGALKIPEQYRMTIWRGLQDLK [A3W], the abundance fitness was found to be 0.209 ± 0.037.

With YHFDPSLVSFLTGLGCPNCIEYFTSQGLQSIYHLQNLTIEDLGALKIPEQYRMTIWRGLQDLK [A3F], the abundance fitness came to 0.36 ± 0.11.

Take YHLDPSLVSFLTGLGCPNCIEYFTSQGLQSIYHLQNLTIEDLGALKIPEQYRMTIWRGLQDLK [A3L]: the abundance fitness came to 0.311 ± 0.042.

Consider YHVDPSLVSFLTGLGCPNCIEYFTSQGLQSIYHLQNLTIEDLGALKIPEQYRMTIWRGLQDLK [A3V], for which the abundance fitness was 0.137 ± 0.051.

On to YHYDPSLVSFLTGLGCPNCIEYFTSQGLQSIYHLQNLTIEDLGALKIPEQYRMTIWRGLQDLK [A3Y], for which the abundance fitness turned out to be 0.201 ± 0.072.

As to YHSDPSLVSFLTGLGCPNCIEYFTSQGLQSIYHLQNLTIEDLGALKIPEQYRMTIWRGLQDLK [A3S], the abundance fitness was found to be 0.268 ± 0.054.

For YHKDPSLVSFLTGLGCPNCIEYFTSQGLQSIYHLQNLTIEDLGALKIPEQYRMTIWRGLQDLK [A3K], the abundance fitness is 0.358 ± 0.042.

In the case of YHNDPSLVSFLTGLGCPNCIEYFTSQGLQSIYHLQNLTIEDLGALKIPEQYRMTIWRGLQDLK [A3N], the abundance fitness stood at 0.024 ± 0.16.

As for YHMDPSLVSFLTGLGCPNCIEYFTSQGLQSIYHLQNLTIEDLGALKIPEQYRMTIWRGLQDLK [A3M], the abundance fitness came out at 0.349 ± 0.12.

With YHRDPSLVSFLTGLGCPNCIEYFTSQGLQSIYHLQNLTIEDLGALKIPEQYRMTIWRGLQDLK [A3R], the abundance fitness came to 0.326 ± 0.028.

Take YHDDPSLVSFLTGLGCPNCIEYFTSQGLQSIYHLQNLTIEDLGALKIPEQYRMTIWRGLQDLK [A3D]: the abundance fitness worked out at 0.08 ± 0.17.

Take YHCDPSLVSFLTGLGCPNCIEYFTSQGLQSIYHLQNLTIEDLGALKIPEQYRMTIWRGLQDLK [A3C]: the abundance fitness is 0.426 ± 0.062.

As for YHEDPSLVSFLTGLGCPNCIEYFTSQGLQSIYHLQNLTIEDLGALKIPEQYRMTIWRGLQDLK [A3E], the abundance fitness turned out to be 0.197 ± 0.063.
